In EP4786492A1:

What was measured:
[1] = molecular target: DLL3 endogenously expressed on NCI-H82 cells (UniProt Q9NYJ7); test: FACS on NCI-H82 cells; antibody 4 nM
[2] = molecular target: DLL3 endogenously expressed on NCI-H82 cells (UniProt Q9NYJ7); test: FACS on NCI-H82 cells; antibody 0.16 nM
[3] = molecular target: DLL3 endogenously expressed on NCI-H82 cells (UniProt Q9NYJ7); test: FACS on NCI-H82 cells; antibody 0.0064 nM
[4] = molecular target: DLL3 endogenously expressed on NCI-H82 cells (UniProt Q9NYJ7); test: FACS on NCI-H82 cells; antibody 100 nM
[5] = molecular target: DLL3 endogenously expressed on NCI-H82 cells (UniProt Q9NYJ7); test: FACS on NCI-H82 cells; antibody 0.8 nM
[6] = molecular target: DLL3 endogenously expressed on NCI-H82 cells (UniProt Q9NYJ7); test: FACS on NCI-H82 cells; antibody 0.00128 nM
[7] = molecular target: DLL3 endogenously expressed on NCI-H82 cells (UniProt Q9NYJ7); test: FACS on NCI-H82 cells; antibody 20 nM
[8] = molecular target: DLL3 endogenously expressed on NCI-H82 cells (UniProt Q9NYJ7); test: FACS on NCI-H82 cells; antibody 0.032 nM
[9] = molecular target: human DLL3 protein (extracellular segment, His tag) (human) (UniProt Q9NYJ7); test: SPR (Biacore 8K), antibody captured on Protein A chip, DLL3 antigen in solution, 1:1 Langmuir fit
human DLL3 protein (extracellular segment, His tag) (human), sequence (Q9NYJ7 27-492): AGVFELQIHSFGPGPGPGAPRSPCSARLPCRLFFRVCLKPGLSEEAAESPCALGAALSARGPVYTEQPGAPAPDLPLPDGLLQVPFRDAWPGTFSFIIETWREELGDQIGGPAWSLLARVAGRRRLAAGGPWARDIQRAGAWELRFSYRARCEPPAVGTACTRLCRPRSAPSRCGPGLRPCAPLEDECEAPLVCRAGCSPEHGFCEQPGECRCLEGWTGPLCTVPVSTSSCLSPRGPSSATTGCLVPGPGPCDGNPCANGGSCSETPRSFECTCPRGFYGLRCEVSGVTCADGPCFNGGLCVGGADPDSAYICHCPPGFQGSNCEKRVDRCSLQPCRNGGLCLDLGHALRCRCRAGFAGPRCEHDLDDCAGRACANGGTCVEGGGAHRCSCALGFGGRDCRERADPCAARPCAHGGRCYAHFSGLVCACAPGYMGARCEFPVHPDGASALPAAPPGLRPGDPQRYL

DLL3 endogenously expressed on NCI-H82 cells, sequence (Q9NYJ7 27-618): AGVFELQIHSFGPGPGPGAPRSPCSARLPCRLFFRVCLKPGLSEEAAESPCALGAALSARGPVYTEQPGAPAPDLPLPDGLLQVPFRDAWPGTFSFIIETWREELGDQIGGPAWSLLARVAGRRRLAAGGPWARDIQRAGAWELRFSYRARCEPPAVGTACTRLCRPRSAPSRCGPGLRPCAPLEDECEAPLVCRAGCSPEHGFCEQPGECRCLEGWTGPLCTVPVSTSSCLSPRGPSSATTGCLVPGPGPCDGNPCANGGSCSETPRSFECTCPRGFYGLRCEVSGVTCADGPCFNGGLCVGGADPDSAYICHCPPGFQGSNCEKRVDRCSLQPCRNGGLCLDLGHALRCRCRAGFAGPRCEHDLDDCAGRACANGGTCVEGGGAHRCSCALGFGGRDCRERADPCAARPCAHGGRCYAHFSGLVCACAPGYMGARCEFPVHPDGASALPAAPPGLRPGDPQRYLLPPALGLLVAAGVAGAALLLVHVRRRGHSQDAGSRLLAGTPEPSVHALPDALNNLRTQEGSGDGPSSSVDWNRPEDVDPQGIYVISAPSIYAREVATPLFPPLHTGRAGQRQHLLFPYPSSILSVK

Binder	MFI [1]	MFI [2]	MFI [3]	MFI [4]	MFI [5]	MFI [6]	MFI [7]	MFI [8]	Kd [9]	koff [9]	kon [9]
Hab006VL4VH2-hFc (Fc fusion, part only; not given: Linker and human IgG1 Fc, not shown: a dimerising Fc or GST) chain, part: DIVMTQSPDSLAVSLGERATINCRATKSISKYLAWYQQKPGQTNKLLIFSGSTLQSGVPDRFSGSGSGTDFTLTISSLQAEDVAVYYCQQHHEYPYTFGGGTKVEIKEVQLVQSGAEVKKPGASVKVSCKASGYTFTSYWMHWVRQAPGQRLEWMGVIDPSDSLANYNQEFKGRVTLTVDTSASTAYMELSSLRSEDTAVYYCARDSTVVAPMDYWGQGTTVTVSS	445	385	151	588	429	117	494	250	–	–	–
mab015 scFv-hFc (Fc fusion, part only; not given: linker and human IgG1 Fc, not shown: a dimerising Fc or GST) chain, part: NIVMTQSPKSMSMSVGERVTLSCKASENVGTYVSWFQQKPEQSPKLLIYGASNRYTGVPDRFTGSGSATDFTLTISSVQAEDLADYHCGQFYSFPCTFGGGTKLEIKEVKLEESGGGLVQPGGSMKLSCVASGITFSNFWMNWVRQSPEKGLEWVAQIRLKSDDYATHYAESVKGRFTISRDDSKGSVYLQMNNLRTEDTGIHYCTTGYYFDYWGQGTTLTVSS	1190	588	135	1680	1120	113	1360	218	0.000597 nM	1.46e-06 s⁻¹	2.45e+06 M⁻¹ s⁻¹
mab006 scFv-hFc (Fc fusion, part only; not given: linker and human IgG1 Fc, not shown: a dimerising Fc or GST) chain, part: DVQITQSPSYLAASPGETITINCRATKSISKYLAWYQEKPGKTNKLLIFSGSTLQSGIPSRFRGSGSGTDFTLTISSLEPEDFAMYYCQQHHEYPYTFGGGTKLEIKQVQLQQPGAELVRPGTSVKLSCKASGYTFTSYWMHWVRQRPGQGLEWIGVIDPSDSLANYNQEFKGKATLTVDTSSSTAYMQLSSLTSEDSAVYYCARDSTVVAPMDYWGQGTSVTVSS	457	416	177	586	422	123	488	292	1.25 nM	0.000203 s⁻¹	162000 M⁻¹ s⁻¹
mab014 scFv-hFc (Fc fusion, part only; not given: Linker and human IgG1 Fc, not shown: a dimerising Fc or GST) chain, part: DIQMTQSSSSFSVSLGDRVTITCKASEDIYNRLAWYQQKPGNTPRLLISGATSLETGVPSRFSGSGSGKDFTLSITSLQTEDVATYYCQQYWSLPWTFGGGTKLEIKEVQLHQSGPELVKPGTSVKISCKASGYTFTDYYMNWVKQSHGKSLEWIGDINPNHGDTGYNQKFTGKATLTVDKSSSTAYMELRSLTSEDSAVYYCARNFFYYGTTYGWYFDVWGTGTTVTVSS	702	429	134	1190	667	112	829	213	0.0547 nM	4.64e-05 s⁻¹	848000 M⁻¹ s⁻¹
mab008 scFv-hFc (Fc fusion, part only; not given: linker and human IgG1 Fc, not shown: a dimerising Fc or GST) chain, part: DIVMTQSQKFMSTSVGDRVSITCKASQNVGTAVAWYQQKPGQSPKLLIFSASIRYTGVPDRFTGSGSGTDFTLTISNMQSEDLADYFCQQYSSSPYTFGGGTKLEIKEVQLQQSGPVLVKPGASVKMSCKASGYTFTDYYMNWVKRSHGKSLEWIGIINPYNGGTSYNQKFRGKATLTVDKSSNTAYMELNSLTSEDSAVYYCSRYDYDYDVEGAMDYWGQGTSVTVSS	373	107	94	537	176	113	438	95	0.381 nM	0.00034 s⁻¹	891000 M⁻¹ s⁻¹
mab009 scFv-hFc (Fc fusion, part only; not given: Linker and human IgG1 Fc, not shown: a dimerising Fc or GST) chain, part: DIVMTQSPATLSVTPGDRVSLSCRASQTISDYLHWYQQRSHESPRLLIKYASQSISGIPSRFSGSGSGSDFTLSINSVEPEDVGVYYCQNGHSFPLTFGAGTKLELKEVQLQQSGTVLARPGASVKMSCKTSGYTFTSYWMHWVKQSPGQGLEWIGTIYPGNSDTRYNQKFKDKAYVTAVTSASTAYMELSSLTNEESAVYYCTRSYDYGDLDYWGQGTTLTVSS	737	673	175	968	674	123	833	346	0.216 nM	0.00132 s⁻¹	6.13e+06 M⁻¹ s⁻¹

Next, values leading:

MFI [1]	MFI [2]	MFI [3]	MFI [4]	MFI [5]	MFI [6]	MFI [7]	MFI [8]	Kd [9]	koff [9]	kon [9]	Binder
–	–	–	–	–	–	–	–	0.264 nM	0.00082 s⁻¹	3.11e+06 M⁻¹ s⁻¹	mab013 scFv-hFc (Fc fusion, part only; not given: linker and human IgG1 Fc, not shown: a dimerising Fc or GST) scFv, part: DIVLTQSPASLAVSLGQRATISCRASKSVSTSGFSYMHWYQQKPGQPPKLLIYLASNLESGVPARFSGSGSGTDFTLNIHPVEEEDAATYYCQHSRELPFTFGSGTKLEIKQVQLQQSGAELVKPGASVRISCKASGYAFSNYWINWVKQRPGKGLEWIGQINPGDGDTIYNGKFKGKATLTADKSSSTAYMQLSSLTSEDSAVYFCEREGRNYGDFAYWGQGTTLTVSS
–	–	–	–	–	–	–	–	0.0131 nM	2.5e-05 s⁻¹	1.91e+06 M⁻¹ s⁻¹	Hab015VL4VH6b-hFc (Fc fusion, part only; not given: VL-VH linker and human IgG1 Fc, not shown: another chain or arm of the molecule; a dimerising Fc or GST; small tags and cut ends) VL: NIVLTQSPATLSLSPGERATLSCKASENVGTYVSWFQQKPGQSPRLLIYGASNRYTGIPARFSGSGSGTDFTLTISSLEPEDFAVYYCGQFYSFPSTFGGGTKVEIK VH: EVQLVESGGGLVKPGGSLRLSCAASGITFSNFWMNWVRQAPEKGLEWVGQIRLKSDQYATHYAESVKGRFTISREDSKNTVYLQMNSLKTEDTAVYYCTTGYYFDYWGQGTTVTVSS
759	673	180	888	722	122	815	379	–	–	–	Hab009VL1aVH1-hFc (Fc fusion, part only; not given: Linker and human IgG1 Fc, not shown: a dimerising Fc or GST) chain, part: DIVMTQSPLSLPVTPGEPASISCRASQTISDYLHWYLQKPGQSPQLLIKYASQSISGVPDRFSGSGSGSDFTLKISRVEAEDVGVYYCQQGHSFPLTFGQGTKLEIKEVQLVQSGAEVKKPGASVKVSCKASGYTFTSYWMHWVRQAPGQRLEWMGTIYPGNSDTRYNQKFKDRVTITADTSASTAYMELSSLRSEDTAVYYCTRSYDYGDLDYWGQGTTVTVSS
747	671	185	870	709	124	789	377	–	–	–	Hab009VL2aVH1-hFc (Fc fusion, part only; not given: Linker and human IgG1 Fc, not shown: a dimerising Fc or GST) chain, part: DIVMTQSPLSLPVTPGEPASISCRASQTISDYLHWYLQKPGQSPRLLIKYASQSISGVPDRFSGSGSGTDFTLKISRVEAEDVGVYYCQQGHSFPLTFGQGTKLEIKEVQLVQSGAEVKKPGASVKVSCKASGYTFTSYWMHWVRQAPGQRLEWMGTIYPGNSDTRYNQKFKDRVTITADTSASTAYMELSSLRSEDTAVYYCTRSYDYGDLDYWGQGTTVTVSS
